Measurements as given in patent US20020019514A1 (Harvard, published 2002).

Target: T1, CIITA (expressed from the CIITA expression vector pCMV.CIITA) (UniProt P33076 1-1130)
T1 sequence (looked up): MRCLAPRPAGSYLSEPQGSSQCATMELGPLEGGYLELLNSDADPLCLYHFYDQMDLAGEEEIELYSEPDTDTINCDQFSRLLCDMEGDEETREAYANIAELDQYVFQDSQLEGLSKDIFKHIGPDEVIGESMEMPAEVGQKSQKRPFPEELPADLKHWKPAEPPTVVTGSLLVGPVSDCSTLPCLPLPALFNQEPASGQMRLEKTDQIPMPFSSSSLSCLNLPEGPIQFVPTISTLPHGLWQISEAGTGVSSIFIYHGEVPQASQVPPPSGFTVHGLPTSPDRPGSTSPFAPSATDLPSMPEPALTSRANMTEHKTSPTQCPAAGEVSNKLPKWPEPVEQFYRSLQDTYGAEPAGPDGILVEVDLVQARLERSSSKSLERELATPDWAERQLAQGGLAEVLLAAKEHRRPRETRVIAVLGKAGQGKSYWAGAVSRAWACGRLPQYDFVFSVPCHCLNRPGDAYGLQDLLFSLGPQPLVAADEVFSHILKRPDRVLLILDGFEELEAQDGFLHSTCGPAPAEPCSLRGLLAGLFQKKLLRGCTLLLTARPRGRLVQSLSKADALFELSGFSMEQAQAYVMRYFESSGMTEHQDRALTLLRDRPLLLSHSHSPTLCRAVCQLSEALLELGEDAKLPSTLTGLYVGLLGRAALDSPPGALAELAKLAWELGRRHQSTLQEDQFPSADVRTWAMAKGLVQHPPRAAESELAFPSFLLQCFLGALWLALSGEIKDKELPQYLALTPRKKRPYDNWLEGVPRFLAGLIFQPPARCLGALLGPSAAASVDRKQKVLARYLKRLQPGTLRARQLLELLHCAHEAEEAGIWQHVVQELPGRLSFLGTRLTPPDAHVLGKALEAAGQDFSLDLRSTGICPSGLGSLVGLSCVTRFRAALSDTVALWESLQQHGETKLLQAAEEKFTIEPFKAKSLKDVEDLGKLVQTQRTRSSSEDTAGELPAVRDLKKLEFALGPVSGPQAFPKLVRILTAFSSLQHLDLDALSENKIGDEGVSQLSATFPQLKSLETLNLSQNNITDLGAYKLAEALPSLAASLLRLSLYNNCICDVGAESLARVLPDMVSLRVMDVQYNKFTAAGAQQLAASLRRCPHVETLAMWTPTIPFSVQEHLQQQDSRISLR
Assay: cell-based or functional assay

B1: CIITA-Interacting Protein 104 (CIP104) (other)
chain: MKMLDESIRKEEEQQQHEAGVAPQPPLKEPFASLQSPFPTDTAPTTTAPAVAVTTTTTTTTTTTATQEEEKKPPPALPPPPPLAKFPPPSQPQPPPPPPPSPASLLKSLASVLEGQKYCYRGTGAAVSTRPGPLPTTQYSPGPPSGATALPPTSAAPSAQGSPQPSASSSSQFSTSGGPWARERRAGEEPVPGPMTPTQPPPPLSLPPARSESEVLEEISRACETLVERVGRSATDPADPVDTAEPADSGTERLLPPAQAKEEAGGVAAVSGSCKRRQKEHQKEHRRHRRACKDSVGRRPREGRAKAKAKVPKEKSRRVLGNLDLQSEEIQGREKSRPDLGGASKAKPPTAPAPPSAPAPSAQPTPPSASVPGKKAREEAPGPPGVSRADMLKLRSLSEGPPKELKIRLIKVESGDKETFIASEVEERRLRMADLTISHCAADVVRASRNAKVKGKFRESYLSPAQSVKPKINTEEKLPREKLNPPTPSIYLESKRDAFSPVLLQFCTDPRNPITVIRGLAGSLRLNLGLFSTKTLVEASGEHTVEVRTQVQQPSDENWDLTGTRQIWPCESSRSHTTIAKYAQYQASSFQESLQEEKESEDEESEEPDSTTGTPPSSAPDPKNHHIIKFGTNIDLSDAKRWKPQLQELLKLPAFMRVTSTGNMLSHVGHTILGMNTVQLYMKVPGSRTPGHQENNNFWSVNINIGPGDCEWFAVHEHYWETIRAFCDRHGVDYLTGSWWPILDDLYASNIPVYRFVQRPGDLVWINAGTVHWVQATGWCNNIAWNVGPLTAYQYQLALERYEWNEVKNVKSIVPMIHVSWNVARTVKISDPDLFKMIKFCLLQSMKHCQVQRESLVRAGKKIAYQGRVKDEPAYYCNDCDVEVFNILFVTSENGSRNTYLVHCEGCARRRSAGLQGVVVLEQYRTEELAQAYDAFTLAPASTSR
  CIITA-mediated DRα-CAT expression (DRα promoter CAT reporter in cotransfected cells): ~30 fold
